Test results taken from patent publication US20240010684A1, “MASP INHIBITORY COMPOUNDS AND USES THEREOF” (BAYER AKTIENGESELLSCHAFT, priority 2020, published 2024).

Tests used:
[1] = target: T1, recombinant human MASP1 (amino acids 297-699, C-terminal His Tag) (human) (UniProt P48740); assay: cell-based or functional assay
T1 sequence: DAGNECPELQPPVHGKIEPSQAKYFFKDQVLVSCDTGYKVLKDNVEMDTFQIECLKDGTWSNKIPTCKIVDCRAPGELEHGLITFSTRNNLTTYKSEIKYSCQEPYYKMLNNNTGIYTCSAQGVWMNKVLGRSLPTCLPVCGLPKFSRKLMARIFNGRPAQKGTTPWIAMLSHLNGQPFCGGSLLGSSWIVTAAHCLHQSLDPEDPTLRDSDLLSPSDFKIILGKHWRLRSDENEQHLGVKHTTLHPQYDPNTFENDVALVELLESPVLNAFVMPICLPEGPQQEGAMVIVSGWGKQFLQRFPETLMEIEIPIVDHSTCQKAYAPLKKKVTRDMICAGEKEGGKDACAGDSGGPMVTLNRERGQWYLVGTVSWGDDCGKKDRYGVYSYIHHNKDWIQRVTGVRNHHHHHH

[2] = target: recombinant human MASP2 (amino acids 297-686, C-terminal His Tag) (human) (UniProt O00187); assay: cell-based or functional assay
Chain of recombinant human MASP2 (amino acids 297-686, C-terminal His Tag) (human) (O00187 other isoform, or with tags, fused parts or gaps limits assumed): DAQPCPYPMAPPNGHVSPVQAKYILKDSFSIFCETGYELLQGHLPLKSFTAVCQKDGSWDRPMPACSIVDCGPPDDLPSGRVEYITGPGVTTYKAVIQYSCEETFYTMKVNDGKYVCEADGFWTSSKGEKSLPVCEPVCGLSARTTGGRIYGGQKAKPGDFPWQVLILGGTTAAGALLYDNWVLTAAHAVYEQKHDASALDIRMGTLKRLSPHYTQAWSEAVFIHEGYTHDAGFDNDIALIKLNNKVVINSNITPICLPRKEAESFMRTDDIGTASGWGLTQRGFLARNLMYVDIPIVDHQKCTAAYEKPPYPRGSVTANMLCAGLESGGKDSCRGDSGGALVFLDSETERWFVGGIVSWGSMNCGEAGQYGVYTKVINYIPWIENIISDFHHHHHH

human MASP1 IC50 [1]: 8.2 nM
human MASP2 IC50 [2]: 66 nM
Substance: Example 47: A**GGIC+SRS-((tBu)A)-PPI-((N-Me)C)+-IPd** (peptide)
